Results published in PMC7149228.

Target: Polyubiquitinated model substrate (lac repressor degron-sfGFP) bearing long ubiquitin chains (E. coli | not stated) (UniProt P0CG48)
Assay: MST

## Ddi1 construct containing the HDD and RVP domains (D220N) (domain or fragment)
  Kd: 100 µM
